Assay results taken from publication PMC5718816.

Target: IgG-CD4 fusion protein (human) (UniProt P01730)
Assay: BLI

Row | Substance | Kd
1 | recombinant consensus gp120 of HIV-1 CRF01_AE | 18.4 nM
2 | recombinant gp120 of HIV-1 JR-FL (subtype B) (natural protein) | 6.4 nM
3 | recombinant gp120 of HIV-1 93MW965.26 (subtype C) (natural protein) | 112 nM
4 | recombinant gp120 of HIV-1 92UG037.8 (subtype A) (natural protein) | 2.56 nM
